# Measured values published in the supplement of paper PMC7125110.
# ± gives the standard error. Fewer inactive variants are shown than the library holds.
# B1: glmS ribozyme (parent)
# chain: AUAAAAGCGCCAGAACUACAGAAAUGUAGUUGACGAGGAGGAGGUUUAUCGAAUUUUCGGCGGAUGCCUCCAAA
# Columns and labels:
# Details in all cases: with glucosamine-6-phosphate
# glucosamine-6-phosphate [1] = variants of: B1; assay: self-cleavage kobs at 160 uM GlcN6P; higher = faster cleavage; RNA array
# How it was run: (§1)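 Barcoded ribozyme variants, transcribed in situ by E. coli RNA polymerase on sequenced MiSeq chips, were followed via a hybridised Cy3 probe at 37 °C. Glucosamine-6-phosphate ranged from 40 μM to 10 mM in HEPES/KCl/Mg(OAc)2 buffer. kobs came from decay fits to per-tile medians, and kcat and KM from weighted Michaelis–Menten fits.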
# glucosamine-6-phosphate [2] = variants of: B1; assay: self-cleavage kobs at 640 uM GlcN6P; higher = faster cleavage; RNA array
# How it was run: as §1
# glucosamine-6-phosphate [3] = variants of: B1; assay: self-cleavage kobs at 2500 uM GlcN6P; higher = faster cleavage; RNA array
# How it was run: as §1
# glucosamine-6-phosphate [4] = variants of: B1; assay: self-cleavage kobs at 10000 uM GlcN6P; higher = faster cleavage; RNA array
# How it was run: as §1
Variant,self-cleavage kobs at 160 uM GlcN6P (glucosamine-6-phosphate [1]),self-cleavage kobs at 640 uM GlcN6P (glucosamine-6-phosphate [2]),self-cleavage kobs at 2500 uM GlcN6P (glucosamine-6-phosphate [3]),self-cleavage kobs at 10000 uM GlcN6P (glucosamine-6-phosphate [4])
A12C G41C U49A,< 1e-05 s⁻¹,< 1e-05 s⁻¹,< 1e-05 s⁻¹,
C8U G32C G43C C70G,< 1e-05 s⁻¹,,,
C11G A39C A64U,< 1e-05 s⁻¹,< 1e-05 s⁻¹,,
A15C C16G C67G,< 1e-05 s⁻¹,,,
U30C A42U U49A,< 1e-05 s⁻¹,< 1e-05 s⁻¹,< 1e-05 s⁻¹,
G7A C8U C16A G43C G44U G63U C68U,< 1e-05 s⁻¹,< 1e-05 s⁻¹,< 1e-05 s⁻¹,< 1e-05 s⁻¹
C10U A12U G40U A48G G60A,7.46e-05 ± 2.7e-05 s⁻¹,,,
G41A A53G,0.000343 ± 7e-05 s⁻¹,0.000842 ± 0.00015 s⁻¹,0.00129 ± 0.00028 s⁻¹,0.00427 ± 0.00084 s⁻¹
G37U A48C C68U,< 1e-05 s⁻¹,< 1e-05 s⁻¹,,
U45G C58G G59A,< 1e-05 s⁻¹,,< 1e-05 s⁻¹,
A14C A39G C58G G60U G62U,< 1e-05 s⁻¹,,< 1e-05 s⁻¹,
A12C A15U U55G C67U,4.96e-05 ± 2.1e-05 s⁻¹,0.0001 ± 2.8e-05 s⁻¹,0.000447 ± 0.00013 s⁻¹,
A6G G38C U49A,< 1e-05 s⁻¹,< 1e-05 s⁻¹,,
U30A A53U C70U,0.000167 ± 4.8e-05 s⁻¹,0.000821 ± 0.0002 s⁻¹,,
C11U A15G G44U G60U,< 1e-05 s⁻¹,< 1e-05 s⁻¹,< 1e-05 s⁻¹,
A15U A42C,< 1e-05 s⁻¹,< 1e-05 s⁻¹,< 1e-05 s⁻¹,< 1e-05 s⁻¹
G38C A48G G60U,< 1e-05 s⁻¹,< 1e-05 s⁻¹,< 1e-05 s⁻¹,
A6U U31A G43U,< 1e-05 s⁻¹,< 1e-05 s⁻¹,< 1e-05 s⁻¹,
A14U C16A A33C,< 1e-05 s⁻¹,< 1e-05 s⁻¹,,
A20U U56C,0.000306 ± 8.2e-05 s⁻¹,,0.0029 ± 0.00075 s⁻¹,
C34A G37A C58U,< 1e-05 s⁻¹,,,
G13C G43C C70A,< 1e-05 s⁻¹,,,

Variant,self-cleavage kobs at 160 uM GlcN6P (glucosamine-6-phosphate [1]),self-cleavage kobs at 640 uM GlcN6P (glucosamine-6-phosphate [2]),self-cleavage kobs at 2500 uM GlcN6P (glucosamine-6-phosphate [3]),self-cleavage kobs at 10000 uM GlcN6P (glucosamine-6-phosphate [4])
A53C U54G,0.000308 ± 0.00011 s⁻¹,0.000352 ± 0.00012 s⁻¹,0.000803 ± 0.00021 s⁻¹,
U31A U46G G66A,6.92e-05 ± 2.9e-05 s⁻¹,0.000303 ± 0.00015 s⁻¹,0.000638 ± 0.00022 s⁻¹,
C34U C70U,< 1e-05 s⁻¹,< 1e-05 s⁻¹,,
C50U U56A,< 1e-05 s⁻¹,,,
A42C U47A,< 1e-05 s⁻¹,,< 1e-05 s⁻¹,
C10G G32A A33G C61A G63A,0.00144 ± 0.00069 s⁻¹,,,
G38A A53U A64U,< 1e-05 s⁻¹,,,
G43U G66U C67U,< 1e-05 s⁻¹,,,
A6G G13U G29C C50G,0.000248 ± 5.8e-05 s⁻¹,0.00012 ± 4.1e-05 s⁻¹,0.000163 ± 4.4e-05 s⁻¹,
C8U G41C G62U C68U,< 1e-05 s⁻¹,< 1e-05 s⁻¹,< 1e-05 s⁻¹,
U30G A42G U56C,0.000132 ± 4.7e-05 s⁻¹,0.000353 ± 0.00011 s⁻¹,0.000492 ± 0.00016 s⁻¹,
U57A G62C,< 1e-05 s⁻¹,< 1e-05 s⁻¹,,< 1e-05 s⁻¹
C11U A14U A64C,< 1e-05 s⁻¹,,,
U47G C50U G63C,< 1e-05 s⁻¹,< 1e-05 s⁻¹,,
G35C A36G U49C A53C C68U,< 1e-05 s⁻¹,< 1e-05 s⁻¹,< 1e-05 s⁻¹,
C61G U65A,< 1e-05 s⁻¹,< 1e-05 s⁻¹,< 1e-05 s⁻¹,< 1e-05 s⁻¹
A15C C16G C50G A64C,0.000208 ± 6.7e-05 s⁻¹,7.03e-05 ± 2.7e-05 s⁻¹,5.92e-05 ± 1.8e-05 s⁻¹,
G37A G43U U47C A52C A64U,< 1e-05 s⁻¹,< 1e-05 s⁻¹,< 1e-05 s⁻¹,
G43U U49A A52U,< 1e-05 s⁻¹,< 1e-05 s⁻¹,< 1e-05 s⁻¹,
A33G A42C,< 1e-05 s⁻¹,< 1e-05 s⁻¹,< 1e-05 s⁻¹,< 1e-05 s⁻¹
A6U A42C,< 1e-05 s⁻¹,,< 1e-05 s⁻¹,< 1e-05 s⁻¹
G9A A52G,< 1e-05 s⁻¹,< 1e-05 s⁻¹,< 1e-05 s⁻¹,

Variant,self-cleavage kobs at 160 uM GlcN6P (glucosamine-6-phosphate [1]),self-cleavage kobs at 640 uM GlcN6P (glucosamine-6-phosphate [2]),self-cleavage kobs at 2500 uM GlcN6P (glucosamine-6-phosphate [3]),self-cleavage kobs at 10000 uM GlcN6P (glucosamine-6-phosphate [4])
A42C G63U,< 1e-05 s⁻¹,,,< 1e-05 s⁻¹
C10U U49G U56A,< 1e-05 s⁻¹,,,
C50A G63A,< 1e-05 s⁻¹,,,< 1e-05 s⁻¹
C10U G60U C70G,< 1e-05 s⁻¹,< 1e-05 s⁻¹,,
G13U C50G G59A,0.0002 ± 7.6e-05 s⁻¹,,,
G7U G35A G59C,< 1e-05 s⁻¹,,< 1e-05 s⁻¹,
G44U G59U,< 1e-05 s⁻¹,< 1e-05 s⁻¹,< 1e-05 s⁻¹,< 1e-05 s⁻¹
C34A U47C A48C,< 1e-05 s⁻¹,,,
A36U G60A,< 1e-05 s⁻¹,,< 1e-05 s⁻¹,< 1e-05 s⁻¹
A14U U55A U69A,0.000101 ± 2.7e-05 s⁻¹,,8.95e-05 ± 1.1e-05 s⁻¹,4.58e-05 ± 2e-05 s⁻¹
G44U C50U C71A,< 1e-05 s⁻¹,< 1e-05 s⁻¹,,
C16G U30A C58U G59A G60U C67G,< 1e-05 s⁻¹,,,
G26U A52G,9.82e-05 ± 2.9e-05 s⁻¹,,0.000726 ± 0.00017 s⁻¹,
G41U G43U G51U,< 1e-05 s⁻¹,,< 1e-05 s⁻¹,
C8G G37U G51U,< 1e-05 s⁻¹,< 1e-05 s⁻¹,,
A14C G51A C58A C68G,6.87e-05 ± 1.6e-05 s⁻¹,8.48e-05 ± 2.9e-05 s⁻¹,8.83e-05 ± 2.5e-05 s⁻¹,
G40A C68G,< 1e-05 s⁻¹,< 1e-05 s⁻¹,< 1e-05 s⁻¹,< 1e-05 s⁻¹
A14G A39G U69A,0.000285 ± 7.7e-05 s⁻¹,0.000936 ± 0.00031 s⁻¹,0.000786 ± 0.00024 s⁻¹,
A6C U30G,< 1e-05 s⁻¹,,,
G9U G62A,< 1e-05 s⁻¹,< 1e-05 s⁻¹,< 1e-05 s⁻¹,< 1e-05 s⁻¹
A15G A33G,< 1e-05 s⁻¹,< 1e-05 s⁻¹,,< 1e-05 s⁻¹
A6G G9U G32C G40U U45A U47G U69C,< 1e-05 s⁻¹,,,

Variant,self-cleavage kobs at 160 uM GlcN6P (glucosamine-6-phosphate [1]),self-cleavage kobs at 640 uM GlcN6P (glucosamine-6-phosphate [2]),self-cleavage kobs at 2500 uM GlcN6P (glucosamine-6-phosphate [3]),self-cleavage kobs at 10000 uM GlcN6P (glucosamine-6-phosphate [4])
G38A A39C U57A,< 1e-05 s⁻¹,< 1e-05 s⁻¹,,
G40A G51U,< 1e-05 s⁻¹,< 1e-05 s⁻¹,,
G7U A12C U54A C58A C70G,< 1e-05 s⁻¹,,< 1e-05 s⁻¹,
A48C U69A,< 1e-05 s⁻¹,< 1e-05 s⁻¹,,
G9U A12G,< 1e-05 s⁻¹,< 1e-05 s⁻¹,< 1e-05 s⁻¹,< 1e-05 s⁻¹
C11U A33C A53U,< 1e-05 s⁻¹,< 1e-05 s⁻¹,,
U54C U55A,0.00144 ± 0.00036 s⁻¹,0.00609 ± 0.0028 s⁻¹,0.00974 ± 0.0036 s⁻¹,
A6C G66C,< 1e-05 s⁻¹,< 1e-05 s⁻¹,,
U30G A33U,< 1e-05 s⁻¹,,,
A6U U30G G62U,< 1e-05 s⁻¹,< 1e-05 s⁻¹,,
G38U G40C G41C,< 1e-05 s⁻¹,< 1e-05 s⁻¹,< 1e-05 s⁻¹,
C34U G51C,< 1e-05 s⁻¹,< 1e-05 s⁻¹,< 1e-05 s⁻¹,< 1e-05 s⁻¹
G9C G38A C70U,< 1e-05 s⁻¹,< 1e-05 s⁻¹,< 1e-05 s⁻¹,
G38C G60C C71G,< 1e-05 s⁻¹,< 1e-05 s⁻¹,,
U45G C61U G63A U65C,< 1e-05 s⁻¹,< 1e-05 s⁻¹,< 1e-05 s⁻¹,
C8U C10A G62A,< 1e-05 s⁻¹,< 1e-05 s⁻¹,,
C10U A33C G43U G44A C67G,< 1e-05 s⁻¹,< 1e-05 s⁻¹,< 1e-05 s⁻¹,
U55C G59C,< 1e-05 s⁻¹,< 1e-05 s⁻¹,,
U30G G43A U47G,< 1e-05 s⁻¹,< 1e-05 s⁻¹,< 1e-05 s⁻¹,
U31C G35C,< 1e-05 s⁻¹,< 1e-05 s⁻¹,< 1e-05 s⁻¹,< 1e-05 s⁻¹
C16U G60C,< 1e-05 s⁻¹,< 1e-05 s⁻¹,< 1e-05 s⁻¹,
C58U C68A C71G,8.62e-05 ± 2.6e-05 s⁻¹,4.72e-05 ± 2.2e-05 s⁻¹,,

Variant,self-cleavage kobs at 160 uM GlcN6P (glucosamine-6-phosphate [1]),self-cleavage kobs at 640 uM GlcN6P (glucosamine-6-phosphate [2]),self-cleavage kobs at 2500 uM GlcN6P (glucosamine-6-phosphate [3]),self-cleavage kobs at 10000 uM GlcN6P (glucosamine-6-phosphate [4])
A33G A52G U56A,< 1e-05 s⁻¹,,,< 1e-05 s⁻¹
G59C G63U C71A,< 1e-05 s⁻¹,,,
U31A A42U U45A G62U,< 1e-05 s⁻¹,,< 1e-05 s⁻¹,
A42U A52C A53G,< 1e-05 s⁻¹,,,
G38U A39G G41C A42U U57C,< 1e-05 s⁻¹,,,
C16G A39G A48G C58G A64U,< 1e-05 s⁻¹,< 1e-05 s⁻¹,,
A33C G35C U45G A64C,< 1e-05 s⁻¹,,< 1e-05 s⁻¹,
A14U G29A A52C C61U C68A C71G,0.000123 ± 3.3e-05 s⁻¹,9.79e-05 ± 2.9e-05 s⁻¹,0.00014 ± 5e-05 s⁻¹,
C34G U49G A53G G63C,< 1e-05 s⁻¹,< 1e-05 s⁻¹,,
U30G G35U G44U U46G U65C,< 1e-05 s⁻¹,< 1e-05 s⁻¹,< 1e-05 s⁻¹,
U30A C50A,< 1e-05 s⁻¹,,,
G7U G51U,< 1e-05 s⁻¹,< 1e-05 s⁻¹,< 1e-05 s⁻¹,< 1e-05 s⁻¹
G29A A52C,< 1e-05 s⁻¹,< 1e-05 s⁻¹,,< 1e-05 s⁻¹
C10U C34U G38C A39U,< 1e-05 s⁻¹,,,
C34G A53G C68G,0.000101 ± 2.4e-05 s⁻¹,0.000115 ± 2.5e-05 s⁻¹,8.44e-05 ± 3.6e-05 s⁻¹,
G35C G62U A64U,< 1e-05 s⁻¹,,< 1e-05 s⁻¹,
G7U U45A,< 1e-05 s⁻¹,,< 1e-05 s⁻¹,
G9U G37U C50U C67U,< 1e-05 s⁻¹,,,
